Measured values published in US20230234987A1.
pKd, pKi: −log10 of the molar value.

Assays:
[1] = target: His-tagged PP1 (protein phosphatase 1, catalytic subunit); test: plate binding curve: biotinylated peptide on His-PP1 on nickel wells, streptavidin-Alexa Fluor 488
[2] = target: His-tagged PP1 (protein phosphatase 1, catalytic subunit); test: competition plate assay: MYPT1 1-299 binding to His-PP1 with increasing PIP250; competitor MYPT1 1-299
[3] = target: His-tagged PP1 (protein phosphatase 1, catalytic subunit); test: plate binding curve: MYPT1 1-299 on His-PP1 on nickel wells, streptavidin-Alexa Fluor 488
[4] = target: His-tagged PP1 (protein phosphatase 1, catalytic subunit); test: as above; remark: listed apart in the source

| Substance | pKd [1] | pKi [2] | pKd [3] | pKd [4] |
| --- | --- | --- | --- | --- |
| PIP250 (H-rrfkvktkkrk-NH2) (peptide) | 3.21 | 3.81 | – | – |
| PIP251 (H-rrakvktkkrk-NH2) (peptide) | 2.89 | – | – | – |
| PIP252 (H-rrfkaktkkrk-NH2) (peptide) | 3.14 | – | – | – |
| amino acids 1-299 of MYPT1 | – | – | 7.30 | 7.31 |
